Reference: doi:10.1101/2024.04.26.587986 (bioRxiv, 2024)

Biological target: the molecule itself
Assay: SEC

B1: β-galactosidase (GLB1), endogenous in mouse brain (enzyme, mouse (endogenous in mouse brain), UniProt P23780 30-647, looked up)
chain: QRTFKLDYSRDRFLKDGQPFRYISGSIHYFRIPRFYWEDRLLKMKMAGLNAIQMYVPWNFHEPQPGQYEFSGDRDVEHFIQLAHELGLLVILRPGPYICAEWDMGGLPAWLLEKQSIVLRSSDPDYLVAVDKWLAVLLPKMKPLLYQNGGPIITVQVENEYGSYFACDYDYLRFLVHRFRYHLGNDVILFTTDGASEKMLKCGTLQDLYATVDFGTGNNITQAFLVQRKFEPKGPLINSEFYTGWLDHWGKPHSTVKTKTLATSLYNLLARGANVNLYMFIGGTNFAYWNGANTPYEPQPTSYDYDAPLSEAGDLTKKYFALREVIQMFKEVPEGPIPPSTPKFAYGKVALRKFKTVAEALGILCPNGPVKSLYPLTFTQVKQYFGYVLYRTTLPQDCSNPKPIFSSPFNGVRDRAYVSVDGVPQGILDRNLMTALNIRGKAGATLDILVENMGRVNYGRFINDFKGLISNMTINSTVLTNWTVFPLNTEAMVRNHLWGREASDEGHLDGRSTSNSSDLILPTFYVGNFSIPSGIPDLPQDTFIQFPGWSKGQVWINGFNLGRYWPTMGPQKTLFVPRNILTTSAPNNITVLELEFAPCSEGTPELCTVEFVDTPVIS
- stoichiometry N: 4
